Reference: patent publication US20200289663A1
pKd: −log10 of the molar value.

Key:
[1] = target: human recombinant protein HER2-ECD with his-tag (human) (UniProt P04626); assay: ELISA on coated HER2-ECD
[2] = target: human recombinant protein HER2-ECD with his-tag (human) (UniProt P04626); assay: ELISA on coated HER2-ECD, average of three independent assays

Sequence of RC48-mc-vc-pAB-MMAE (VH): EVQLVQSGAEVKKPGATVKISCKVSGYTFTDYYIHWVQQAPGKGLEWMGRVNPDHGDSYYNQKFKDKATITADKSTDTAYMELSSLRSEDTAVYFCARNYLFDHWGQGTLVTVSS
Sequence of RC48-mc-vc-pAB-MMAE (VL): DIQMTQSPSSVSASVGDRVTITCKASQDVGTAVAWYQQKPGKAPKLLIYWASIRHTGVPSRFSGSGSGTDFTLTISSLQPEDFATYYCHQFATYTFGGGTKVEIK
Sequence of RC48-VC-MMAF (VH): as the sequence (VH) above
Sequence of RC48-VC-MMAF (VL): as the sequence (VL) above
Sequence of humanized anti-HER2 monoclonal antibody RC48 (VH): as the sequence (VH) above
Sequence of humanized anti-HER2 monoclonal antibody RC48 (VL): as the sequence (VL) above

Row | Binding affinity [1] | Mole equivalent [1] | pKd [2] | Substance
1 | 3.35 ng/mL | 13.5 |  | RC48-VC-MMAF
2 | 2.24 ng/mL | 15.2 |  | RC48-mc-vc-pAB-MMAE
3 |  |  | 10.11 | human-mouse chimeric anti-HER2 antibody cRC48
4 |  |  | 10.36 | humanized anti-HER2 monoclonal antibody RC48
